The source of these data is US7645449B2, “Sensitizing cells for apoptosis by selectively blocking cytokines” (priority 2003, dated 2010).

Common to all, as to format: cell-based, human
In assay [1] the test system is LNCaP prostate cancer cells. Nature of the assay: MTS viability of LNCaP cells: chemotherapy- and anti-CD95-induced apoptosis. As to the method:
(§1) Human LNCAP prostate cancer cell line and human MDA-MB-231 breast cancer cell line were obtained from the American Type Culture Collection (ATCC, Manassas, Va.). Human RT112 bladder carcinoma cell line was kindly provided by Dr. M. Cippitelli (Regina Elena Cancer Institute, Rome, Italy). Cells were grown in RPMI 1640 (Life Technologies Inc., Grand Island, N.Y.) containing 10% heat inactivated fetal bovine serum supplemented with L-Glutamine 2 mM and 100 units/ml Penicillin-Streptomycin. Cells were kept in 5% CO2 atmosphere and routinely passaged when 80-85% confluent. […]
(§2) Cell viability was determined using the CellTiter 96® AQueous One Solution Cell Proliferation Assay (Promega, Madison, Wis.), according to the manufacturer's instructions. The assay is based on reduction of 3-(4,5-dimethylthiazol-2-yl)-5-(3-carboxymethoxyphenyl)-2-(4-sulfophenyl)-2H-tetrazolium, inner salt (MTS) to a colored formazan product that is measured spectrophotometrically. […] After 3 hours of incubation at 37° C. with the MTS reagent, the plates were read on a Multilabel Counter (Victor2, Wallac, Perkin-Ehmer Inc., Norwalk, Conn.) and dye absorbance was measured at 490 nm.
(§3) The percentage of apoptotic cells was derived from the percentage of viable cells that was directly calculated from the values of the MTS assay.

In assay [2] the test system is MDA-MB-231 breast cancer cells. Nature of the assay: MTS viability of MDA-MB-231 cells: chemotherapy- and anti-CD95-induced apoptosis. As to the method:
as §1, §2, §3

For assay [3], the system named is Bcl-XL and cFlip/FLAME-1 in LNCap prostate cancer cells. Briefly: Immunoblot of Bcl-XL and cFlip/FLAME-1 in LNCaP cells. The note with it: following IL-4 treatment. As to the method:
(§4) The observation that prostate and breast tumor cells treated with IL-4 display a reduced sensitivity to death induced by CD95 and chemotherapeutic drugs led us to investigate whether this cytokine would influence the expression of apoptosis regulatory genes. […] Therefore, IL-4-mediated increased survival in bladder, prostate and breast cancer cells is associated with upregulation of anti-apoptotic proteins.
(§5) Cell pellets were washed twice with cold PBS and lysed on ice for 30 minutes with 1% NP40 lysis buffer (20 mM Tris-HCl pH 7.2, 200 mM NaCl, 1% NP40) in the presence of 1 mM phenylmethylsulphonyl fluoride (PMSF) and 2 μg/ml each of aprotinin, leupeptin and pepstatin. Cell debris was removed by centrifugation at 13,000 rpm for 10 minutes at 4° C. Lysate concentration was determined using the Bio-Rad protein assay (Bio-Rad Laboratories, Richmond, Calif.). Aliquots of cell extracts containing 30 μg of total protein were resolved on 10% or 12% SDS-PAGE and transferred to a Hybond-C extra nitrocellulose membrane (Amersham Pharmacia Biotech, Piscataway, N.J.). […]
In general terms: In western blotting, separated proteins are transferred to a membrane and probed.

Assay [4] has as its system cFlip/FLAME-1 in MDA-MB-231 cells. Briefly: Immunoblot of Bcl-XL and cFlip/FLAME-1 in MDA-MB-231 cells. To be noted: following IL-4 treatment. Here is the method: as §4, §5
The subject of assay [5] is freshly isolated normal breast epithelial cells. Nature of the assay: Bcl-XL expression and chemotherapy-induced apoptosis in normal breast epithelial cells exposed to IL-4. The source says:
(§6) To confirm that IL-4-induced upregulation of Bcl-XL is able to protect epithelial breast cells from apoptosis, freshly isolated normal breast epithelial cells were exposed to IL-4 and analyzed Bcl-XL expression and sensitivity to a panel of chemotherapeutic drugs commonly used to treat breast cancer. […] To confirm that in vivo exposure to IL-4 is responsible for high Bcl-XL expression and resistance to chemotherapy in breast cancer, Bcl-XL expression and sensitivity to apoptosis of primary breast carcinoma cells cultivated in the presence or absence of IL-4 was measured Freshly isolated breast cancer cells expressed high levels of Bcl-XL and were scarcely sensitive to chemotherapeutic drugs (FIGS. 14C and D). […] Thus, in vivo IL-4 production promotes the survival of breast cancer cells. […]
(§7) Cell pellets were washed twice with cold PBS and lysed on ice for 30 minutes with 1% NP40 lysis buffer (20 mM Tris-HCl pH 7.2, 200 mM NaCl, 1% NP40) in the presence of 1 mM phenylmethylsulphonyl fluoride (PMSF) and 2 μg/ml each of aprotinin, leupeptin and pepstatin. […] Lysate concentration was determined using the Bio-Rad protein assay (Bio-Rad Laboratories, Richmond, Calif.). […]

In assay [6] the test system is primary breast carcinoma cells. Nature of the assay: Bcl-XL expression and chemosensitivity of primary breast carcinoma cells cultivated with or without IL-4. To be noted: 6 days of in vitro culture in the presence of IL-4.
Source text: as §6, §7

Where [7] appears, read: cytokine pretreatment, 30 ng/ml anti-CD95 agonistic antibody.

B1: IL-4: human recombinant IL-4 (protein, UniProt P05112 25-153, looked up)
Interleukin-4: HKCDITLQEIIKTLNSLTEQKTLCTELTVTDIFAASKNTTEKETFCRAATVLRQFYSHHEKDTRCLGATAQQFHRHKQLIRFLKRLDRNLWGLAGLNSCPVKEANQSTLENFLERLKTIMREKYSKCSS
For B1, the “anti-CD95-induced apoptosis of LNCaP cells” value in assay [1] (setting [7]) was “greatly reduced anti-CD95-induced apoptosis”. The “drug-induced death of LNCaP cells” value in assay [1] (two days cytokine pretreatment (20 ng/ml), 300 ng/ml cisplatin or 1 μM vincristine) is given as “significantly protected from drug-induced death”. In addition, in assay [2] (setting [7]), the “anti-CD95-induced apoptosis of MDA-MB-231 cells” value is listed as “greatly reduced anti-CD95-induced apoptosis”. Further, the “drug-induced death of MDA-MB-231 cells” value in assay [2] (two days cytokine pretreatment (20 ng/ml), 300 ng/ml cisplatin or 5 μM daunorubicin) is “significantly protected from drug-induced death”. Moreover, the “levels of Bcl-XL and cFlip/FLAME-1 in LNCap cells” value in assay [3] is “considerably upregulated”. In addition, the “cFlip/FLAME-1 level in MDA-MB-231 cells” value in assay [4] is reported as “only a modest increase”. Moreover, the “apoptosis of normal breast epithelial cells induced by cisplatin, doxorubicin and taxol” value in assay [5] (IL-4 pretreatment) is listed as “significantly protected”. Moreover, the “Bcl-XL expression in normal breast epithelial cells” value in assay [5] (IL-4 treatment) is “considerably increased the expression of Bcl-XL”. Moreover, in assay [6], the “Bcl-XL levels in primary breast cancer cells” value is given as “maintained high Bcl-XL levels” and the “sensitivity of primary breast cancer cells to chemotherapeutic drugs” value is reported as “low sensitivity to chemotherapeutic drugs”.
